According to the supplement of paper PMC10126150:
± gives the standard deviation of the averaged measurements.

Tested on: ATP
Experiment: switch fluorescence ratio, 500 uM ATP over buffer (Cy3 cluster intensity, sum of 5 cycles each) (fold (ratio)); higher = stronger signal-on switching upon ATP binding; sequences stand for … in TCGTCGGCAGCGTCAGATGTGTATAAGAGACAGTTTTTTTTTTTTTTTTTTTTTTTTT…TC
Conditions: aptamer strand: ATP DNA aptamer (quencher-CACCTGGGGGAGTATTGCGGAGGAAGG + anchor), 100 nM annealed; ATP concentration: 500 uM
Procedure, shortened: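 The fluorescence ratio divides summed target-cycle Cy3 intensity by summed buffer-cycle Cy3 intensity for each cluster and is averaged per switch-domain sequence. Cy3-labelled switching-strand clusters on a modified Illumina MiSeq flow-cell were annealed to 100 nM quencher-labelled ATP aptamer, then imaged in selection buffer and again after 15 min with 500 uM ATP at 22 °C. Five such cycles were run, with NaOH stripping and re-annealing between them, and clusters outside 100-1000 RFU were excluded.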
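Note: ATP exposure 15 min at 22 °C before imaging.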

Sequence	switch fluorescence ratio
AGGATAATGA	0.998 ± 0.03
TTTTGATTAA	1.02 ± 0.041
CAGACGGTTT	1.095 ± 0.0078
ATTGTTTCTA	1 ± 0.014
TGGGCTCGCC	1 ± 0.025
GGGTCAAAGA	0.9705 ± 0.0086
TGGAACGGTT	1.04 ± 0.047
CCTCTTGAGG	0.978 ± 0.016
GGCCGGCAAA	1.01 ± 0.037
AAGTCGGATG	1.04 ± 0.079
ATTGATTAGT	1.12 ± 0.18
CTTGCGTCAC	1.18 ± 0.044
GGATCGTGGG	0.995 ± 0.03
TTTGTGTCAC	0.984 ± 0.034
AAAGTTACTG	1.03 ± 0.077
GGTCCAAAAT	0.9848 ± 0.0089
CCGGTGGATT	1.21 ± 0.3
CCTCATCTTG	1.018 ± 0.0048
GCGACTAGGT	1.03 ± 0.028
AATGTGCTGT	0.983 ± 0.058
AGGTAGTTTA	1.02 ± 0.045
AGTGTTGGGG	0.998 ± 0.017
AGTGGCCCCG	1 ± 0.011
AGAAACAGGA	1.04 ± 0.04
GCTGCTAATA	1.039 ± 0.01
CTTTCTAGCG	0.995 ± 0.032

Sequence	switch fluorescence ratio
ATGGAAGTGG	0.9908 ± 0.007
AAGTGTTGGC	1.014 ± 0.01
GAAATACAAC	1.04 ± 0.028
TGTTATTTTG	0.989 ± 0.041
TGCAAGTGAA	0.997 ± 0.053
TTATCAAGGG	0.975 ± 0.025
TGGGGTATGT	1 ± 0.031
ATCAAAAGCG	0.96765 ± 0.00089
TAGCAATTTG	1.05 ± 0.053
CTTTGAATGT	0.983 ± 0.03
TCACAGTAAT	1.13 ± 0.063
CAATTTGTGT	0.983 ± 0.012
AGGGAATAAA	1 ± 0.031
CGTAGAGGGC	0.986 ± 0.034
GGGCTTTTTT	0.98 ± 0.018
TAAGGTACGA	1.052 ± 0.0032
GTAGGTATGG	0.969 ± 0.015
CAGATAAGTG	1.01 ± 0.068
CTGGTTCGTC	1.005 ± 0.0071
AATCAAACAT	1.03 ± 0.018
TGGTTGAGTA	0.981 ± 0.017
CTGGTGGTTT	1.01 ± 0.0047
GCTAAGTTTA	0.996 ± 0.025
GTTGGAGCCT	0.995 ± 0.065
AAAGGAGGAG	0.991 ± 0.038
ACTGAATCCT	1.08 ± 0.028

Sequence	switch fluorescence ratio
TGGGTCAGTC	1.05 ± 0.021
TGAGTTAGGG	0.985 ± 0.017
CTTTCATTTT	0.972 ± 0.036
CTGGTAACCG	1 ± 0.06
TAGGGGGCAT	1.01 ± 0.043
TTTTTGGTA	0.985 ± 0.011
GCGATCAGAC	1.15 ± 0.015
TCTTCGTTTT	1.23 ± 0.32
GAGGTTCGCT	0.979 ± 0.069
ATTTGGTGCT	0.999 ± 0.018
TACGAGGTTG	1 ± 0.02
AGACCTCTTT	0.988 ± 0.02
AAAAGTCAGT	0.988 ± 0.053
GAGCTGGGTC	1.02 ± 0.071
GCGTTAAGGA	0.9835 ± 0.0056
TAAAAATTTA	1.01 ± 0.048
GATATTAATT	0.9784 ± 0.0031
CGGGGCTATG	0.997 ± 0.0053
TTAGGGGATG	1.026 ± 0.0098
AGTCGGATTC	1.09 ± 0.076
AGGGAGGTTA	0.972 ± 0.06
AAACGCGTTG	0.9955 ± 0.0011
GTTCGAAAGG	1.022 ± 0.0095
GGATCGCGAA	0.978 ± 0.011
CCGTGGTTTA	1 ± 0.01
